Measured values published in patent US20190359711A1.

Molecular target: CD3 on human pan T cells (human) (UniProt P07766)
Assay: flow cytometry, saturation binding on human pan T cells (KdT)

Sequence of CD3 on human pan T cells (human) (P07766 23-207 limits assumed): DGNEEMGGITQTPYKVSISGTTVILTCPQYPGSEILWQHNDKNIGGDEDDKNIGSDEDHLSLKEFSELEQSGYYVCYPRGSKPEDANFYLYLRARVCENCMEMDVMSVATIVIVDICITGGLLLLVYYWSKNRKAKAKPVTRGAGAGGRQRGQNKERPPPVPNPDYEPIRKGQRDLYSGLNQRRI

Kd: 5.6 nM
Substance: AlexaFluor488 SP34-2 anti-CD3 (antibody)
